Source: publication PMC4234207

target: T1, GST-FKH-FoxA2 (Rattus norvegicus (rat; cloned from genomic DNA)) (UniProt P32182); experiment: competition EMSA; conditions: 25 mM HEPES pH 7.6, 150 mM KCl, 0.2 mM EDTA, 0.2 mM EGTA, 10% glycerol, 1 mM DTT, 3 ug protein, 1 ng 32P-TTR probe, 2/5/20 ng competitor, on ice 15 min; 4% …
T1 sequence (P32182 145-290, looked up): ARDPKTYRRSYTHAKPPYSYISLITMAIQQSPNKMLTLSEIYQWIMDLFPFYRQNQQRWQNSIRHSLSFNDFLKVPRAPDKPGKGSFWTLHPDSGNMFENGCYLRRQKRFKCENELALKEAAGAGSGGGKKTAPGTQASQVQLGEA

| Sequence | binding signal (EMSA score (TTR=1)) |
| --- | --- |
| CAGTGTTCAGAGCTGTTTACTTGAACGCGA (double strand) [FoxA BS chr6:34792983 b] | 0.53 |
| CAGTGTTGCCCGTCGTATTTGTATATGGTTTCCT (double strand) [FoxA BS chr10:79387812] | 0.58 |
| CAGTTATCAATGTTTGTTTACCTTGTGGCT (double strand) [FoxA BS chrX:6878436] | 1.65 |
| CAGTTATCTGTACTTTATTTTCAAACGCTATAAT (double strand) [non-site chr8:96902217 b] | -0.01 |
| CAGTTCACCTGAGGGTGTGTACACAGTCTCTCAG (double strand) [FoxA BS chr7:100410756] | 0.56 |
| CAGTTCATGCCACAGTTTACTCTGGTCCCT (double strand) [non-site chr1:154160175] | 0.24 |
| CAGTTGCCTTTCTGTTTGTTGTTTTGGAGG (double strand) [non-site chr5:30822343] | 0.21 |
| CAGTTGCGCCCCGGGTGTTGGCAGCGAGAAGTGG (double strand) [non-site chr12:77880754 b] | 0.03 |
| CAGTTGCTGGCCTAATGTGGACACAGGGGGTTCC (double strand) [FoxA BS chr3:83135377] | 0.64 |
| CAGTTGGAGTAGTTATTTACCTTAGCAGCC (double strand) [FoxA BS chr16:13816438] | 0.81 |
| CAGTTGGCCCCAGTATTTACATTTCTAACA (double strand) [FoxA BS chr15:54962925] | 0.92 |
| CAGTTGGGCATATTTGCTCAGAACCTGGTA (double strand) [FoxA BS chr1:159362347] | 0.37 |
| CAGTTTCAAAGCTTGTTGACGGAGAGAAAT (double strand) [non-site chr17:25500984] | 0.2 |
| CAGTTTGGGTCAATATTTATTCTTTCATTT (double strand) [FoxA BS chr19:38189585] | 0.48 |

same assay, conditions: negative control; 25 mM HEPES pH 7.6, 150 mM KCl, 0.2 mM EDTA, 0.2 mM EGTA, 10% glycerol, 1 mM DTT, 3 ug protein, 1 ng 32P-TTR probe, 2/5/20 ng competitor, on ice 15 min; 4% …

| Sequence | binding signal (EMSA score (TTR=1)) |
| --- | --- |
| CGATCAAAACTAGGTCAAAGGTCA (double strand) [PPAR] | 0 |

target: T1, GST-FKH-FoxA2 (Rattus norvegicus (rat; cloned from genomic DNA)); experiment: EMSA and self-competition; conditions: reference probe; 25 mM HEPES pH 7.6, 150 mM KCl, 0.2 mM EDTA, 0.2 mM EGTA, 10% glycerol, 1 mM DTT, 3 ug protein, 1 ng 32P-TTR probe, 2/5/20 ng competitor, on ice 15 min; 4% …

| Sequence | binding signal (EMSA score (TTR=1)) |
| --- | --- |
| CAGTCGAGTTGACTAAGTCAATAATCAGAATCAGTCG (double strand) [TTR] | 1 |
